US20120039915A1

Target: antigen bound by the GC4 antibody on GBM tumor sphere cells (target antigen not determined)
Test: FACS on GBM tumor sphere cells at RT, MFI fitted (apparent dissociation constant)

- Kd: 79.7 nM
B1: recombinant human GC4 IgG1 (antibody, V domains shown)
VH: QVQLVESGGGLVQPGGSLRLSCAASGFTFGTYDMSWVRQAPGKGLEWVSGISGSGGSTYYADSVKGRFTISRDNSKNTVYLQMNSLRVEDTAVYYCARGGWYSDNWGQGTLVTVSS
VL: SELTQDPAVSVALGQTVRITCQGGSLRSYYASWYQQKPGQAPLLVIYGENNRPSGIPDRFSGSSSGNTASLTITGAQAEDEADYYCHSRDSSGNHVVFGGGTKLTV
